From patent publication US20240228626A1 (IMMUNORIZON, published 2024)

Experiments:
[1] = molecular target: NKG2D on primary NK cells purified from healthy donor's PBMCs (human) (UniProt P26718); assay: cell-based or functional assay
[2] = molecular target: recombinant human NKG2D-ECD-Fc (extracellular domain of NKG2D fused to human Fc) (human) (UniProt P26718); assay: ELISA on coated NKG2D-ECD-Fc
[3] = molecular target: cyno-NKG2D/Dap10 over-expressed in CHO cells (cyno) (UniProt P61252); assay: FACS on CHO cells over expressing cynoNKG2D
[4] = molecular target: T1, NKG2D on primary NK cells purified from healthy donor's PBMCs (human, UniProt P26718 1-216); assay: FACS on primary NK cells, 100 nM and 10 nM
T1 construct: whole, on cells
T1 sequence (looked up): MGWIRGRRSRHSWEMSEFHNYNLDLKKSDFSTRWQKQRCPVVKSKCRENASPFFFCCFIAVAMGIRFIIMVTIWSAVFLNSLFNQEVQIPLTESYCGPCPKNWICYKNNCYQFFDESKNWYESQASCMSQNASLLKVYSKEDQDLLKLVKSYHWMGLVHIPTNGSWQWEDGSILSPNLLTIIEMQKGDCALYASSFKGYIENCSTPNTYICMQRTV

[5] = molecular target: T1, NKG2D on primary NK cells purified from …; assay: FACS on primary NK cells, two concentrations
[6] = molecular target: T1, NKG2D on primary NK cells purified from …; assay: FACS on cells

Sequence of cyno-NKG2D/Dap10 over-expressed in CHO cells (cyno) (P61252 whole entry): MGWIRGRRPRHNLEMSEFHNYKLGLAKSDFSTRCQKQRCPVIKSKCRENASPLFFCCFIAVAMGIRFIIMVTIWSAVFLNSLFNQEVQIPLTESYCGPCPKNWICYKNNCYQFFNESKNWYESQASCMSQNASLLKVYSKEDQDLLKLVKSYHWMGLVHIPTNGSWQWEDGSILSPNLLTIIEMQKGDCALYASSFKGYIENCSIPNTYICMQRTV

B1: IM1091 CD3/5T4/NKG2D mut(VL-VH) (protein, part only; not given: anti-CD3 Fab, anti-5T4 scFv, linkers, not shown: another chain or arm of the molecule; small tags and cut ends)
VL: QSALTQPASVSGSPGQSITISCSGSSSNIGNNAVNWYQQLPGKAPKLLIYADDLLPSGVSDRFSGSKSGTSAFLAISGLQSEDEADYYCAAWDDSLNGPVFGGGTKLTVL
VH: QVQLVESGGGLVKPGGSLRLSCAASGFTFSSYGMHWVRQAPGKGLEWVAFIRYDGSNKYYADSVKGRFTISRDNSKNTLYLQMNSLRAEDTAVYYCAKDAGEGDGTYFDYWGQGTTVTVSS
An activation as measured by CD107a MFI on CD56^+gated NK cells population [1] of 35 to 40% was found for B1 in this work.

B2: IM1244 CD3x5T4x NKG2D-cl-1 (L-H) (protein, part only; not given: anti-CD3 Fab, anti-5T4 scFv, linkers, not shown: another chain or arm of the molecule; small tags and cut ends)
VL: DIVLTQSPASLAVSLGQRAIISCKASQSVSFAGSNLMHWYQQKPGQQPKLLIYRASNLEVGVPTRFSGSGSGTDFTLNIHPVDEDDAATYYCQQSREYPFTFGSGTKLEIK
VH: EVQLQQSGPELVKPGASVKISCKASAFNFTSYYLHWVKQGPGQGLEWIGWIYPGSGDTKYNEKFKGKATLTADTSSSAANMKLSSLTSEDSAVYYCARNRIFDSYYVDSMDYWGQGTSVTVSS
An EC50 [2] of 2.6 nM and an EC50 [3] of 21 nM were found for B2 in this work.

B3: IM1245 CD3x5T4x NKG2D-cl-1 (H-L) (protein, part only; not given: anti-CD3 Fab, anti-5T4 scFv, linkers, not shown: another chain or arm of the molecule; small tags and cut ends)
VH: EVQLQQSGPELVKPGASVKISCKASAFNFTSYYLHWVKQGPGQGLEWIGWIYPGSGDTKYNEKFKGKATLTADTSSSAANMKLSSLTSEDSAVYYCARNRIFDSYYVDSMDYWGQGTSVTVSS
VL: DIVLTQSPASLAVSLGQRAIISCKASQSVSFAGSNLMHWYQQKPGQQPKLLIYRASNLEVGVPTRFSGSGSGTDFTLNIHPVDEDDAATYYCQQSREYPFTFGSGTKLEIK
An EC50 [2] of 1.1 nM and an EC50 [3] of 13 nM were found for B3 in this work.

B4: IM1248 CD3x5T4x NKG2D-cl-10 (L-H) (protein, part only; not given: anti-CD3 Fab, anti-5T4 scFv, linkers, not shown: another chain or arm of the molecule; small tags and cut ends)
VL: DIVLTQSPASLAMSLGKRATISCRASESVSIMGTNLINWYQQKLGQPPKLLIYHASNLETGVPARFSGSGSRTDFTLTIDPVEEDDVAVYYCLQGRKIPRTFGGGTKLEIK
VH: QVQLQQPGAELVKPGASVKLSCKASGYTFTTYWIQWIKQRPGQGLEWIGEIDPSDIFTNYNQKFKGKATLTVDTSSSTAYMQLSSLTSEDSAVYYCARGVYDGYYVGYFDVWGTGTTVTVSS
An EC50 [2] of 1.7 nM and an EC50 [3] of 5.9 nM were found for B4 in this work.

B5: IM1249 CD3x5T4x NKG2D-cl-10 (H-L) (protein, part only; not given: anti-CD3 Fab, anti-5T4 scFv, linkers, not shown: another chain or arm of the molecule; small tags and cut ends)
VH: QVQLQQPGAELVKPGASVKLSCKASGYTFTTYWIQWIKQRPGQGLEWIGEIDPSDIFTNYNQKFKGKATLTVDTSSSTAYMQLSSLTSEDSAVYYCARGVYDGYYVGYFDVWGTGTTVTVSS
VL: DIVLTQSPASLAMSLGKRATISCRASESVSIMGTNLINWYQQKLGQPPKLLIYHASNLETGVPARFSGSGSRTDFTLTIDPVEEDDVAVYYCLQGRKIPRTFGGGTKLEIK
An EC50 [2] of 0.7 nM and an EC50 [3] of 5.3 nM were found for B5 in this work.

B6: IM1246 CD3x5T4x NKG2D-cl-9 (L-H) (protein, part only; not given: anti-CD3 Fab, anti-5T4 scFv, linkers, not shown: another chain or arm of the molecule; small tags and cut ends)
VL: DVLMTQTPLSLPVSLGDQASISCRSSQSIVHTNGNTYLEWYLQKPGQSPKLLIYRVFNRFSGVPDRFSGSGSGTEFTLKISRVEAEDLGVYYCFQGSHVPFTFGAGTKLELK
VH: EVKLLQSGGGLVQPGGSLKLSCAASGIDLSRYWMSWVRRAPGKGLEWIGEINPDSSTINYAPSLKDKFIISRDNAKNTLSLQMRKVRSEDTALYFCIRRRYYGSSYWYFDVWGTGTTVTVSS
An EC50 [3] of 15 nM was found for B6 in this work.

B7: IM1247 CD3x5T4x NKG2D-cl-9 (H-L) (protein, part only; not given: anti-CD3 Fab, anti-5T4 scFv, linkers, not shown: another chain or arm of the molecule; small tags and cut ends)
VH: EVKLLQSGGGLVQPGGSLKLSCAASGIDLSRYWMSWVRRAPGKGLEWIGEINPDSSTINYAPSLKDKFIISRDNAKNTLSLQMRKVRSEDTALYFCIRRRYYGSSYWYFDVWGTGTTVTVSS
VL: DVLMTQTPLSLPVSLGDQASISCRSSQSIVHTNGNTYLEWYLQKPGQSPKLLIYRVFNRFSGVPDRFSGSGSGTEFTLKISRVEAEDLGVYYCFQGSHVPFTFGAGTKLELK
An EC50 [3] of 30 nM was found for B7 in this work.

B8: IM1250 CD3x5T4x NKG2D-cl-19 (L-H) (protein, part only; not given: anti-CD3 Fab, anti-5T4 scFv, linkers, not shown: another chain or arm of the molecule; small tags and cut ends)
VL: DILLTQSPAILSVSPGERVSFSCRASQSIGTSIHWYQQRTNVSPRLLIKYASESISGIPSRFSGSGSGTDFTLSINNVESEDIADYYCQHSNRWPLTFGAGTKLELK
VH: QVQLKESGPGLVAPSQSLSITCTVSGFSLTSYAISWFRQPPGKGLECLGVIWTGGGTNYNSVFKSRLSIIKDNSKSQVFLKMNSLQTDDTARYYCARKGDEGYWGYFDVWGTGTTVTVSS
An EC50 [3] of 2.3 nM was found for B8 in this work.

B9: mAb001 (antibody, V domains shown)
VH: EVQLQQSGPELVKPGASVKISCKASAFNFTSYYLHWVKQGPGQGLEWIGWIYPGSGDTKYNEKFKGKATLTADTSSSAANMKLSSLTSEDSAVYYCARNRIFDSYYVDSMDYWGQGTSVTVSS
VL: DIVLTQSPASLAVSLGQRAIISCKASQSVSFAGSNLMHWYQQKPGQQPKLLIYRASNLEVGVPTRFSGSGSGTDFTLNIHPVDEDDAATYYCQQSREYPFTFGSGTKLEIK
notes: Mouse hybridoma mAb, protein A purified; also called IM, NKG2D mouse hybridoma cl- 1; NKG2D-cl-1
B9: binds [4].

B10: mAb010 (antibody, V domains shown)
VH: QVQLQQPGAELVKPGASVKLSCKASGYTFTTYWIQWIKQRPGQGLEWIGEIDPSDIFTNYNQKFKGKATLTVDTSSSTAYMQLSSLTSEDSAVYYCARGVYDGYYVGYFDVWGTGTTVTVSS
VL: DIVLTQSPASLAMSLGKRATISCRASESVSIMGTNLINWYQQKLGQPPKLLIYHASNLETGVPARFSGSGSRTDFTLTIDPVEEDDVAVYYCLQGRKIPRTFGGGTKLEIK
notes: Mouse hybridoma mAb, protein A purified; also called IM, NKG2D mouse hybridoma cl- 10; NKG2D-cl-10
B10: binds [4].

B11: mAb019 (antibody, V domains shown)
VH: QVQLKESGPGLVAPSQSLSITCTVSGFSLTSYAISWFRQPPGKGLECLGVIWTGGGTNYNSVFKSRLSIIKDNSKSQVFLKMNSLQTDDTARYYCARKGDEGYWGYFDVWGTGTTVTVSS
VL: DILLTQSPAILSVSPGERVSFSCRASQSIGTSIHWYQQRTNVSPRLLIKYASESISGIPSRFSGSGSGTDFTLSINNVESEDIADYYCQHSNRWPLTFGAGTKLELK
notes: Mouse hybridoma mAb, protein A purified; also called IM, NKG2D mouse hybridoma cl- 19; NKG2D-cl-19
B11: binds [5].

B12: mAb009 (antibody, V domains shown)
VH: EVKLLQSGGGLVQPGGSLKLSCAASGIDLSRYWMSWVRRAPGKGLEWIGEINPDSSTINYAPSLKDKFIISRDNAKNTLSLQMRKVRSEDTALYFCIRRRYYGSSYWYFDVWGTGTTVTVSS
VL: DVLMTQTPLSLPVSLGDQASISCRSSQSIVHTNGNTYLEWYLQKPGQSPKLLIYRVFNRFSGVPDRFSGSGSGTEFTLKISRVEAEDLGVYYCFQGSHVPFTFGAGTKLELK
notes: Mouse hybridoma mAb, protein A purified; also called IM, NKG2D mouse hybridoma cl- 9; NKG2D-cl-9
B12: binds [6].
